{
  "source": "paper doi:10.1101/251942",
  "target": "Brucella adipic acid activated regulator (BaaR), residues 21-284 (Brucella abortus)",
  "assay": "crystal structure",
  "data": [
    {"substance": "Brucella adipic acid activated regulator (BaaR), residues 21-284 (domain or fragment)", "values": [
      {"measurement": "stoichiometry N", "value": 2}
    ]}
  ]
}
